{"source": "paper PMC3680417", "about": "“Phosphorylation of the Leukemic Oncoprotein EVI1 on Serine 196 Modulates DNA Binding, Transcriptional Repression and Transforming Ability”", "binders": {"B1": {"name": "EVI1 ZF1-7 target EMSA probe (dsDNA)", "DNA 1": "ACCCATGGAGCTTTGAGCCCTGTTATCTTGTCAGGGAAGTGTACCATGGA", "DNA 2": "TCCATGGTACACTTCCCTGACAAGATAACAGGGCTCAAAGCTCCATGGGT"}}, "key": {"GST-Evi1 ZF1-7 WT": {"biological_target": "GST-Evi1 ZF1-7 WT (mouse, UniProt P14404-1 21-239)", "sequence (P14404 211-429)": "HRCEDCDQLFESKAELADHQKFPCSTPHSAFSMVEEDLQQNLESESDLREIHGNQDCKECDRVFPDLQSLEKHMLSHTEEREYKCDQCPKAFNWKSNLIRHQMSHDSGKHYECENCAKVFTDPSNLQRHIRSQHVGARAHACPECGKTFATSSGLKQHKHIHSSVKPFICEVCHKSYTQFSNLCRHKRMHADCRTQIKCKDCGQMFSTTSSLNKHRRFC", "assay": "EMSA; EMSA as in cited ref. 6; native 5% acrylamide gel; buffer, salt, pH and temperature not stated", "details": "protein: recombinant; tags: GST (N-terminal, pGEX); label: 5' IRDye"}, "GST-Evi1 ZF1-7 S196A": {"biological_target": "GST-Evi1 ZF1-7 S196A (mouse, UniProt P14404-1 21-239, S196A)", "sequence (P14404 211-429 S386A)": "as the sequence (P14404 211-429) above, with S176A counted along it", "assay": "EMSA; EMSA as in cited ref. 6; native 5% acrylamide gel; buffer, salt, pH and temperature not stated", "details": "protein: recombinant; tags: GST (N-terminal, pGEX); label: 5' IRDye"}}}
{"binder": "B1", "values": [{"measurement": "binding result", "setting": "GST-Evi1 ZF1-7 WT", "result": "binds"}, {"measurement": "binding result", "setting": "GST-Evi1 ZF1-7 S196A", "result": "binds"}]}
